Measured values reported in article PMC12053377.

Biological target: SARS-CoV-2 S HexaPro (Spike 6P) ectodomain trimer (SARS-CoV-2 | not stated) (UniProt P0DTC2)
Test: cryo-EM structure

## SARS-CoV-2 S HexaPro (Spike 6P) ectodomain trimer (from UniProt P0DTC2 14-1208) (domain or fragment)
  stoichiometry N: 3 protomers
